This passage reports OD450nm and EC50 results from patent US20210198377A1 (XDCEXPLORER SHANGHAI, published 2021).

One assay concerns the target T1, human TPBG-hFc (human, UniProt Q13641 32-355).
T1 construct: also called immunogen A; hFc tagged TPBG protein; not shown: The human IgG Fc fragment of the pCpC vector (Invitrogen V044-50) and any linker to it
T1 sequence: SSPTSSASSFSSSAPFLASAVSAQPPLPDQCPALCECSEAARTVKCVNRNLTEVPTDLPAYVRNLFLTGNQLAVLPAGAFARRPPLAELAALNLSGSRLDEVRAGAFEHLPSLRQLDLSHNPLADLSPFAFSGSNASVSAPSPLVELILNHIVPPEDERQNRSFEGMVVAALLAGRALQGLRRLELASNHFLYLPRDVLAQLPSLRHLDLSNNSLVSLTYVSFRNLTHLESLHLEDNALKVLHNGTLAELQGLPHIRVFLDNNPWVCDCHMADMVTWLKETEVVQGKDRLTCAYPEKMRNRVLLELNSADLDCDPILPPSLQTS
The assay is described as follows: ELISA, coated human TPBG-hFc 1.0 ug/mL; antibody 0.02 nM. On the procedure: The purified immunogen A (as for its method of preparation please refer to step 1 in Example 1) diluting with PBS to a final concentration of 1.0 μg/mL was aliquoted into a 96-well ELISA plate at 100 μL per well, and sealed with a parafilm and incubated at 4° C. overnight. The plate was washed twice with plate washing buffer (PBS containing 0.01% (v/v) Tween 20), and blocked with blocking buffer (PBS containing 0.01% (v/v) Tween 20 and 1% (w/w) BSA) at room temperature for 2 h. The blocking buffer was discarded, and 100 μL per well of the purified antibody obtained from Embodiment 2 was added. After incubating at 37° C. for 2 h, the plate was washed for three times with plate washing buffer (PBS containing 0.01% (v/v) Tween 20). HRP (horseradish peroxidase)-labeled secondary antibody (purchased from Sigma) was added and incubated at 37° C. for 2 h, and the plate was washed for three times using plate washing buffer (PBS containing 0.01% (v/v) Tween 20). 100 μL of TMB substrate was aliquoted into each well, incubated at room temperature for 30 min, and 100 μL of stop buffer (1.0N HCl) per well was subsequently added. A₄₅₀ₙₘ values were read using the ELISA plate reader (SpectraMax 384plus purchased from Molecular Device), and the results were shown in FIG. 6 and table 6. […] In Table 6 the IgG control herein is a mice IgG control, the data in the Table are OD₄₅₀ₘₙ values, and Blank means the OD₄₅₀ₘₙ value when there is only PBS buffer in the plate.

Assay [1] has as its target T2, human TPBG (full length, on cells) (human, UniProt Q13641 32-420).
T2 construct: whole, on cells; On transfected HEK293 or CHO-K1 cells; for the tumour lines NCI-H1568 and NCI-H1299 it is the cells' own TPBG; also called hTPBG; 5T4
T2 sequence (looked up): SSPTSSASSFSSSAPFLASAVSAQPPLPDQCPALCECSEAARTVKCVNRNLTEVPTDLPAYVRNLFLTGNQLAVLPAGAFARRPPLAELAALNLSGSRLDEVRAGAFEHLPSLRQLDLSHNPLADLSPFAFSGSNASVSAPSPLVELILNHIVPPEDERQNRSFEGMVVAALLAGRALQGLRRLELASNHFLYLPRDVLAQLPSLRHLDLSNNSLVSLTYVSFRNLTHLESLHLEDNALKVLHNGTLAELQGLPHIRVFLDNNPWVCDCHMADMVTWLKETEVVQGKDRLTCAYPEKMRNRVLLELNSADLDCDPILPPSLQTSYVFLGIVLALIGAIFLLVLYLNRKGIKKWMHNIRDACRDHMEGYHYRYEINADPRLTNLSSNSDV
The assay is described as follows: FACS on CHO-K1-hTPBG cells. The text has this:
The stable cell lines CHO-k1-hTPBG, CHO-k1-cTPBG, CHO-k1-mTPBG (i.e. the CHO-k1-hTPBG 3A2F1, CHO-k1-cTPBG 3F13G4 and CHO-k1-mTPBG 3A3 shown in table 7) and CHO-K1 cells were expanded to a 90% of confluency in T-75 cell culture flasks, the culture medium were removed, and cells were then rinsed twice with HBSS buffer (Hanks Balanced Salt Solution, purchased from Invitrogen) and lysed with enzyme-free cell dissociation buffer (Versene solution purchased from Life technology) and harvested. Harvested cells were rinsed with HBSS buffer twice and counted before diluting with HBSS buffer to 2×10⁶ cells /mL, and 10% goat serum blocking buffer was then added, wherein the percentage is the mass percentage. Cells were incubated on ice for 30 min, and then washed twice with HBSS buffer by centrifugation. The harvested cells were resuspended with FACS buffer (HBSS+1% BSA, wherein the percentage is mass percentage) to a concentration of 2×10⁶ cells /mL. 100 μL per well of the cells was aliquoted to 96-well FACS reaction plates, and 100 μL per well of test sample—the purified TPBG antibody obtaining from Embodiment 2 was added before incubating on ice for 2 h. The plate was washed with the FACS buffer twice by centrifugation, and 100 μL per well of fluorescence (Alexa 488) labeled secondary antibody (purchased from Invitrogen) was then added and incubated on ice for 1 h. The plate was washed with the FACS buffer for three times by centrifugation, follow by resuspending in 100 μL of fixation buffer (4% (v/v) paraformaldehyde). Cells were washed with FACS buffer twice after 10 min, follow by resuspending with 100 μL of FACS buffer. The results were measured and analyzed by FACS (FACS Calibur, purchased from BD). Data analysis was performed by software (CellQuest) to obtain mean fluorescence intensity (MFI) of the cells, follow by calculating EC50 value by software (GraphPad Prism) analysis and data fitting. The analysis results were shown in Table 8 and FIGS. 7-10, and data in FIGS. 7-10 show the mean fluorescence intensity (MFI) of cells.

B1: 36A10D8B12 (antibody, V domains shown)
VH: DVQLQESGPGMVKPSQSLSLTCTVTGYSITSGYDWHWIRHFPGNKLEWMGYISYSGNTNYNPSLKSRISITHNTSKNHFFLRLNSVTTEDTATYYCARGYGNWDAMDYWGQGTSVTVSS
VL: DIVMTQSQKFMSTSVGDRVSVTCKASQIVDTNVAWYQQKPGQSPKALISSASYRYSGVPDRFTGSGSGTDFTLTISNVQSEDLAEYFCQQYNSYPLTFGAGTKLELT
notes: Mouse hybridoma antibody purified from culture supernatant; also called TPBG antibody; lead antibody
Turning to B1, in the assay with human TPBG-hFc, the OD450nm was determined as 0.51 OD450nm. This molecule yielded an EC50 in assay [1] of 0.94 nM.

B2: 12B12C7C3 (antibody, V domains shown)
VH: DVQLVESGGGLVQPGGSRKLSCAASGFTFSNFGMHWVRQAPEKGLEWVAYISSGSTSFYYADTVKGRFTISRDNPKNTLFLQMTSLRSEDTAMYYCSRTNSLLRGFFDAWGAGTTVTVSS
VL: DIVLTQSPASLAVSLGQRATISCRASQSVSSSSYTYLHWYQQKPGQPPKLLIKSASNLESGVPARFSGTGSGTDFTLNIHPVEEEDTATYYCQHSWEIPLTFGAGTKLELK
notes: as for B1
On to B2, for which the OD450nm with human TPBG-hFc turned out to be 0.29 OD450nm. In assay [1], a half-maximal effect (EC50) was put at 0.65 nM.

B3: 106D5G3D10 (antibody, V domains shown)
VH: EVQLVESGGGLVKPGGSLKLSCAASGFTFSDYGMHWVRQAPEKGLEWVGYISSGTYVVYYADTVKGRFTISRDNAKNTLFLQMTSLRSEDTAIYYCSTYGSNPFDYWGQGTTLTVSS
VL: QLVLTQSPAIMSASPGEKVTITCSATSSVSSMHWFQQKPVTSPKLWIYSTSNLASGVPTRFSGSGSGTSYSLTISRMEAEDAATYYCQQRSGYPPIFTFGSGTKLEIK
notes: as for B1
Molecule B3 came in with an OD450nm with human TPBG-hFc of 0.56 OD450nm. In assay [1], this molecule gave an EC50 of 1.72 nM.

B4: 39A11G5F2 (antibody, V domains shown)
VH: QVQLQQSGAELMKPGASMRLSCKATGYTFTGYWLEWIKRRPGHGLEWIGEILPGRGSTNYNEKFKGKATFTAETSSNTAYMQLTSLTTEDSAIYYCARGGRDFDNWGQGTTLTVSS
VL: DIQMTQSTSSLSASLGDRVTISCSASQGINNHLNWYQQKPDGTVKLLIYYTSSLHSGVPSRFSGSGSGTDYSLTISNLEPEDIAIYYCQQFSKLPYTFGGGTKVEMK
notes: as for B1
For the molecule B4, the OD450nm in the assay with human TPBG-hFc worked out at 0.3 OD450nm. The molecule further showed an EC50 in assay [1] of 2.34 nM.

B5: 52C9E9F6 (antibody, V domains shown)
VH: QVQLQQSGAELMKPGASVKLSCKATGYTFTGYWIEWIKQRPGHGLEWIGEILPGRGSTDYNEKFKGKATFTADTSSNTAYMQLSSLTTEDSAIYYCTRGRLDFTYWGQGTLVTVSA
VL: DIQMTQTTSSLSASLGDRVTISCSASQGIRNYLNWYQQKPDGTVKLLIYYTSSLHSGVPSRFSGSGSGTDYSLTISNLEPEDIATYYCQQYSKVPWTFGGGTKLEIK
notes: as for B1
The molecule B5 displayed an OD450nm with human TPBG-hFc of 0.27 OD450nm. This molecule also displayed an EC50 in assay [1] of 3.27 nM.

B6: 28D4E6A9 (antibody, V domains shown)
VH: DVQLVESGGGLVRPGGSLKLSCAASGFTFSNYVMSWARQSPEKRLEWVAEISTGGSHTYYSDTVTGRFTISRDNAKKALYLEMSSLRSEDTAIYYCIMFYYGSSYSMDYWGQGTSVTVSS
VL: DIQMTQSTSSLSASLGDRITISCRASQDIRNYLNWYQQKPDGTVKLLIYHTSRLHSGVPSRFSGSGSGTDYSLTISNLEQEDIATYFCQQGDTLPLTFGAGTRLELK
notes: as for B1
Molecule B6 returned an OD450nm with human TPBG-hFc of 0.46 OD450nm. The molecule further gave a concentration giving a half-maximal response (EC50) in assay [1] of 0.63 nM.

B7: 103E2E9C2 (antibody, V domains shown)
VH: EVQLQQSGPVLVKPGASVKMSCEASGYSFIDYYMSWVKQSRGRSLEWIGVFNPYSGEIIYNQKFKGKATLTVDKSSSTAYMELSSLTSEDSGVYSCARLRISYYAIDYWGQGTSVAVSS
VL: ENVLTQSPAIMSASPGEKVTMTCRATSSVSSGHFHWYQQKSGASPKVWIYSTSNLASGVPARFSGSGSGTSFSLTISSVEAEDVATYFCQQYSGYPLTFGGGTKLEIK
notes: as for B1
As to B7, the OD450nm with human TPBG-hFc was determined as 0.48 OD450nm. This molecule returned an EC50 in assay [1] of 0.85 nM.

B8: 99E12C7H1 (antibody, V domains shown)
VH: QIQLVQSGPELKKPGETVKISCKPSGYTFTAYGLSWVKQAPGQGFQWMGWINTYSGVPTYTDDFKGRFAFSLETSAGTASLQITNLKNEDTATYFCARSSIPPFEYWGPGTTLTVSS
VL: SFVMTQSPKFLLVSVGDRVTITCKASQSVSNDVAWYQQKPGQPPRVLIYFASNRYTGVPDRFTGSGYGTDFTFTISTVQAEDLALYFCQQDYSSPWTFGGGTKLEIK
notes: as for B1
The molecule B8 registered an OD450nm with human TPBG-hFc of 0.78 OD450nm. Also, the EC50 in assay [1] was determined as 3.54 nM.

B9: 37H9C5G2 (antibody, V domains shown)
VH: QVQLQQSDAELVRPGASVKMSCKVSGYTFTDHTIHWMKQRPEQGLEWIGYIYPRDGSGTYNEKFKGKATLTADKSSSTAYMQLNSLTSEDSAVYFCARDGSSHYWYFDVWGTGTTVTVSS
VL: DIQMTQSPASLSASVGETVTITCRASEIIYNYLAWYQQKQGKSPQLLVYNAKTLAEGVPSRFSGSYSGTQFSLNINSLQSEDFGIYYCQHHHDTPLTFGAGTKLDLK
notes: as for B1
Consider B9, for which, in the assay with human TPBG-hFc, the OD450nm was 0.35 OD450nm. In addition, the concentration giving a half-maximal response (EC50) in assay [1] amounted to 0.94 nM.

B10: 5G4H10G5 (antibody, V domains shown)
VH: EVQLVESGGDLVQPGGSLKLFCAASGFTFSTYGLSWVRQTPDKRLELVATITNNDGSAYYPDSVKGRFTISRDKAKNTLFLQMTSLKSEDTAMYYCARETGFGSSYLFDYWGQGTLVTVSA
VL: NIVMTQTPKFLLVSAGDRVTITCKASQSVSNDVAWYQQKPGQSPKLLIYFATNRYTGVPNRFTGSGYGTEFTFTISSVQAEDLAVYFCQQDYSSPTFGGGTKLEIK
notes: as for B1
The molecule B10 showed an OD450nm with human TPBG-hFc of 0.34 OD450nm. In assay [1], this molecule came in with an EC50 of 1.75 nM.
